Measured values reported in patent US20220220218A1 (JIANGSU HENGRUI MEDICINE, published 2022).
Numbering of substitutions follows the chain as printed.

T1: human CD73 (huCD73) protein, antigen of the Biacore assay (human, UniProt P21589 27-547, limits assumed)
T1 construct: also called human CD73 antigen
T1 sequence (looked up): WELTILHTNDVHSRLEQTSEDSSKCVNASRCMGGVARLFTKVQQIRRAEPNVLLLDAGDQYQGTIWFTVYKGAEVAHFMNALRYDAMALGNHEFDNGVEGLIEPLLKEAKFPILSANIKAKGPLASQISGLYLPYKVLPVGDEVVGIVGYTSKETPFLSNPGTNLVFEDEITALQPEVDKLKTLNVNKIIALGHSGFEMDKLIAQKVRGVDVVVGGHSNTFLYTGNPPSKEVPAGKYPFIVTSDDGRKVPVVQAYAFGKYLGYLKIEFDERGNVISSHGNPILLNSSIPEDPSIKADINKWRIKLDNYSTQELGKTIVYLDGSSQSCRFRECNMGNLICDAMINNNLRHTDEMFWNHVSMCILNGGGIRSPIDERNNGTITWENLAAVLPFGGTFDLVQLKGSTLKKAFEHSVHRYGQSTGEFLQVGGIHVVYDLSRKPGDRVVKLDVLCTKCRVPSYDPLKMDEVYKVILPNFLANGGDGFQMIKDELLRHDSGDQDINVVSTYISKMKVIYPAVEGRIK

B1: CH110 (antibody, V domains shown)
VH: QVQLQQSGAELARPGASVQMSCKASGYIFTSYTMHWVKQRPGQGLEWIGYINPNSFYIEYNQKFKDKATLTADTSSSTAYMQLSSLTSEDSAVYYCARGDYDLFYDMDNWGQGTSVTVSS
VL: DIQMTQSPSSLSASLGERVSLTCRASQDIGNSLNWLQQEPDGTIKRLIYATFRLDSGVPKRFSGSRSGSDYSLTISSLESEDFVDYYCQQYASFPWTFGGGTKLEIK
notes: also called chimeric antibody of mab110
B2: CH127 (antibody, V domains shown)
VH: EVQLQQSGPELVKPGESVKISCKASGYSFTAYFMNWVMQSHRKSLEWIGRIYHNNGDTFYSQKFKGKATLTVDKSSNTVHMELRSLTSEDSAVYFCATSYVGDWGQGTTLTVSS
VL: B1 VL with N31D, E39A, I44L, F52S, R53S, K60R, Q89L
notes: also called chimeric antibody of mab127
B3: Hab108.33 (antibody, V domains shown)
VH: EVTLKESGPVLVKPTETLTLTCTVSGFSLSSYGIQWVRQPPGKLLEWLGVIWSGGSADYNAAFISRLTISKDTSKSQVVLTMTNMDPVDTATYYCAGQYGSVWGQGTLVTVSS
VL: DIQMTQSPSSLSASVGDRVTITCRASQDIGDRLNWLQQKPGGAIKRLIYATSSLDSGVPSRFSGSGSGTEYTLTISSLQPEDFATYYCLQYAGSWTFGGGTKVEIK
notes: VL3 + VH3; full-length antibody
B4: Hab108.23 (antibody, V domains shown)
VH: B3 VH
VL: B3 VL with G42K
notes: VL2 + VH3; full-length antibody
B5: Hab108.52 (antibody, V domains shown)
VH: B3 VH with V37I, G49A
VL: B3 VL with G42K, S60K
notes: VL5 + VH2; full-length antibody
B6: Hab108.15 (antibody, V domains shown)
VH: B3 VH with S30K
VL: B3 VL with L36Y, G42K, I44P, Y71F
notes: VL1 + VH5; full-length antibody
B7: Hab108.63 (antibody, V domains shown)
VH: B3 VH
VL: B3 VL with S60K
notes: VL6 + VH3; full-length antibody
B8: Hab108.34 (antibody, V domains shown)
VH: B3 VH with E6Q, V10G, L44G
VL: B3 VL
notes: VL3 + VH4; full-length antibody
B9: Hab108.62 (antibody, V domains shown)
VH: B3 VH with V37I, G49A
VL: B3 VL with S60K
notes: VL6 + VH2; full-length antibody
B10: Hab108.65 (antibody, V domains shown)
VH: B3 VH with S30K
VL: B3 VL with S60K
notes: VL6 + VH5; full-length antibody
B11: Hab108.45 (antibody, V domains shown)
VH: B3 VH with S30K
VL: B3 VL with T69S, T85D
notes: VL4 + VH5; full-length antibody
B12: Hab108.53 (antibody, V domains shown)
VH: B3 VH
VL: B3 VL with G42K, S60K
notes: VL5 + VH3; full-length antibody
B13: Hab108.35 (antibody, V domains shown)
VH: B3 VH with S30K
VL: B3 VL
notes: VL3 + VH5; full-length antibody
B14: Hab108.25 (antibody, V domains shown)
VH: B3 VH with S30K
VL: B3 VL with G42K
notes: VL2 + VH5; full-length antibody
B15: CH108 (antibody, V domains shown)
VH: QVQLKQSGPGLVQPSQSLSITCTVFGFSLKSYGIQWVRQSPGKGLEWLGVIWSGGSADYNAAFISRLSISKDNSKSQVFFKMNSLQGDDTAIYYCAGQYGSVWGQGTSVTVSS
VL: DIQMTQSPSSLSASLGERVSLTCRASQDIGDRLNWLQQEPDGTIKRLIYATSSLDSGVPKRFSGSRSGSDYSLTISSLESEDFVDYYCLQYAGSWTFGGGTKLEIK
notes: also called chimeric antibody of mab108
B16: Hab127.31b (antibody, V domains shown)
VH: EVQLVQSGAEVKKPGASVKVSCKASGYTFTAYFMNWVRQAPGQGLEWMGRIYHNLGDTFYSQKFKGRVTMTVDKSTSTVYMELSSLRSEDTAVYYCATSYVGDWGQGTTVTVSS
VL: DIQMTQSPSSLSASVGDRVTITCRASQDIGDSLNWLQQKPGGALKRLIYATSSLDSGVPSRFSGSGSGTEYTLTISSLQPEDFATYYCLQYASFPWTFGGGTKVEIK
notes: VL3 + VH1b, HCDR2 hot-spot variant; full-length antibody
B17: Hab127.43 (antibody, V domains shown)
VH: B16 VH with R38M, M48I, L55N, V68A, M70L
VL: B16 VL with T69S, E70D
notes: VL4 + VH3; recombined with human heavy and light constant regions
B18: Hab127.31c (antibody, V domains shown)
VH: B16 VH with L55T
VL: B16 VL
notes: VL3 + VH1c, HCDR2 hot-spot variant; full-length antibody
B19: Hab127.31h (antibody, V domains shown)
VH: B16 VH with N54L, L55N, G56V
VL: B16 VL
notes: VL3 + VH1h, HCDR2 hot-spot variant; full-length antibody
B20: Hab127.44 (antibody, V domains shown)
VH: B16 VH with R38M, G44S, M48I, L55N, V68A, M70L, S84R
VL: B16 VL with T69S, E70D
notes: VL4 + VH4; recombined with human heavy and light constant regions
B21: Hab127.41 (antibody, V domains shown)
VH: B16 VH with L55N
VL: B16 VL with T69S, E70D
notes: VL4 + VH1; recombined with human heavy and light constant regions
B22: Hab127.31g (antibody, V domains shown)
VH: B16 VH with N54Q, L55N, G56V
VL: B16 VL
notes: VL3 + VH1g, HCDR2 hot-spot variant; full-length antibody
B23: Hab127.34 (antibody, V domains shown)
VH: B16 VH with R38M, G44S, M48I, L55N, V68A, M70L, S84R
VL: B16 VL
notes: VL3 + VH4; recombined with human heavy and light constant regions
B24: Hab127.33 (antibody, V domains shown)
VH: B16 VH with R38M, M48I, L55N, V68A, M70L
VL: B16 VL
notes: VL3 + VH3; recombined with human heavy and light constant regions
B25: Hab127.31e (antibody, V domains shown)
VH: B16 VH with L55E
VL: B16 VL
notes: VL3 + VH1e, HCDR2 hot-spot variant; full-length antibody
B26: Hab127.42 (antibody, V domains shown)
VH: B16 VH with R38M, L55N
VL: B16 VL with T69S, E70D
notes: VL4 + VH2; recombined with human heavy and light constant regions
B27: Hab127.31f (antibody, V domains shown)
VH: B16 VH with L55H
VL: B16 VL
notes: VL3 + VH1f, HCDR2 hot-spot variant; full-length antibody
B28: Hab127.31i (antibody, V domains shown)
VH: B16 VH with N54H, L55N, G56V
VL: B16 VL
notes: VL3 + VH1i, HCDR2 hot-spot variant; full-length antibody

These molecules were tested against T1, human CD73 (huCD73) protein, antigen of … (assay: SPR Biacore T200; antibody captured on Protein A chip, CD73 in flow; 1:1 Langmuir).
Excerpt: In this experiment, Biacore instrument was used to determine the affinity of the humanized anti-CD73 antibodies to be tested with human CD73 (huCD73) and monkey CD73 (cynoCD73).
A certain amount of test antibody was affinity-captured with Protein A biosensing chip (Cat. #29127556, GE), and then a certain concentration of human or monkey CD73 antigen was allowed to flow through the surface of the chip. The reaction signals were detected in real time with Biacore instrument (Biacore T200, GE) to generate a binding and dissociation curve. At the end of each cycle, after the dissociation was completed, the biosensor chip was washed and regenerated with Glycine-HCl, pH1.5 (Cat. #BR-1003-54, GE). The running buffer for the assay was 1×HBS-EP buffer solution (Cat. #BR-1001-88, GE).
The data obtained from the experiment was fitted against (1:1) Langmuir model using GE Biacore T200 Evaluation version 3.0 software, and the affinity values were obtained, as shown in Table 12 and Table 13 for details.

Kd | koff | kon | Molecule
0.265 nM | 0.000147 s⁻¹ | 556000 M⁻¹ s⁻¹ | B1
0.139 nM | 3.31e-05 s⁻¹ | 239000 M⁻¹ s⁻¹ | B2
0.481 nM | 0.000123 s⁻¹ | 255000 M⁻¹ s⁻¹ | B3
0.913 nM | 0.000187 s⁻¹ | 205000 M⁻¹ s⁻¹ | B4
0.93 nM | 0.000241 s⁻¹ | 260000 M⁻¹ s⁻¹ | B5
0.485 nM | 0.000121 s⁻¹ | 249000 M⁻¹ s⁻¹ | B6
0.513 nM | 0.000117 s⁻¹ | 228000 M⁻¹ s⁻¹ | B7
0.999 nM | 0.000106 s⁻¹ | 106000 M⁻¹ s⁻¹ | B8
0.382 nM | 8.68e-05 s⁻¹ | 227000 M⁻¹ s⁻¹ | B9
0.246 nM | 6.93e-05 s⁻¹ | 281000 M⁻¹ s⁻¹ | B10
0.253 nM | 7.38e-05 s⁻¹ | 292000 M⁻¹ s⁻¹ | B11
0.609 nM | 0.000156 s⁻¹ | 257000 M⁻¹ s⁻¹ | B12
0.28 nM | 8.09e-05 s⁻¹ | 290000 M⁻¹ s⁻¹ | B13
0.349 nM | 0.000101 s⁻¹ | 290000 M⁻¹ s⁻¹ | B14
0.365 nM | 5.82e-05 s⁻¹ | 160000 M⁻¹ s⁻¹ | B15
0.204 nM | 4.48e-05 s⁻¹ | 220000 M⁻¹ s⁻¹ | B16
0.15 nM | 3.58e-05 s⁻¹ | 239000 M⁻¹ s⁻¹ | B17
0.205 nM | 4.76e-05 s⁻¹ | 232000 M⁻¹ s⁻¹ | B18
0.441 nM | 6.66e-05 s⁻¹ | 151000 M⁻¹ s⁻¹ | B19
0.18 nM | 4.15e-05 s⁻¹ | 230000 M⁻¹ s⁻¹ | B20
0.191 nM | 4.39e-05 s⁻¹ | 230000 M⁻¹ s⁻¹ | B21
0.319 nM | 5.18e-05 s⁻¹ | 163000 M⁻¹ s⁻¹ | B22
0.22 nM | 3.58e-05 s⁻¹ | 163000 M⁻¹ s⁻¹ | B23
0.211 nM | 3.69e-05 s⁻¹ | 175000 M⁻¹ s⁻¹ | B24
0.212 nM | 3.75e-05 s⁻¹ | 177000 M⁻¹ s⁻¹ | B25
0.166 nM | 3.94e-05 s⁻¹ | 238000 M⁻¹ s⁻¹ | B26
0.193 nM | 4.33e-05 s⁻¹ | 224000 M⁻¹ s⁻¹ | B27
0.585 nM | 7.93e-05 s⁻¹ | 136000 M⁻¹ s⁻¹ | B28

These molecules were tested against human CD73 on tumor cell line MDA-MB-231 that highly expresses human CD73 (human) (UniProt P21589) (assay: cell-based or functional assay).

IC50 (nM) in the assay showing the inhibition of enzyme activity in MDA-MB-231 cell | Molecule
0.565 nM | MEDI9447 (antibody MEDI9447 disclosed in patent application WO2016075099)
